Laboratory results taken from patent US20190233847.

B1: Tobacco Etch Virus (TEV) protease (protein)
chain: GESLFKGPRDYNPISSTICHLTNESDGHTTSLYGIGFGPFIITNKHLFRRNNGTLLVQSLHGVFKVKNTTTLQQHLIDGRDMIIIRMPKDFPPFPQKLKFREPQREERICLVTTNFQTKSMSSMVSDTSCTFPSSDGIFWKHWIQTKDGQCGSPLVSTRDGFIVGIHSASNFTNTNNYFTSVPKNFMELLTNQEAQQWVSGWRLNADSVLWGGHKVFMSKPEEPFQPVKEATQLMNELVYSQ

What was measured:
[1] = molecular target: cpCas9-1017 circular permutation: residues 1018-1368, (GGS)n linker, then 1-1017 (Streptococcus pyogenes) (UniProt Q99ZW2); experiment: cell_activity; conditions: enrichment in RFP repression FACS screen, E. coli
[2] = molecular target: cpCas9-271 circular permutation: residues 272-1368, (GGS)n linker, then 1-271 (Streptococcus pyogenes) (UniProt Q99ZW2); experiment: cell_activity; conditions: enrichment in RFP repression FACS screen, E. coli
[3] = molecular target: cpCas9-1250 circular permutation: residues 1251-1368, (GGS)n linker, then 1-1250 (Streptococcus pyogenes) (UniProt Q99ZW2); experiment: cell_activity; conditions: enrichment in RFP repression FACS screen, E. coli
[4] = molecular target: cpCas9-1283 circular permutation: residues 1284-1368, (GGS)n linker, then 1-1283 (Streptococcus pyogenes) (UniProt Q99ZW2); experiment: cell_activity; conditions: enrichment in RFP repression FACS screen, E. coli
[5] = molecular target: cpCas9-182 circular permutation: residues 183-1368, (GGS)n linker, then 1-182 (Streptococcus pyogenes) (UniProt Q99ZW2); experiment: cell_activity; conditions: enrichment in RFP repression FACS screen, E. coli
[6] = molecular target: cpCas9-311 circular permutation: residues 312-1368, (GGS)n linker, then 1-311 (Streptococcus pyogenes) (UniProt Q99ZW2); experiment: cell_activity; conditions: enrichment in RFP repression FACS screen, E. coli
[7] = molecular target: cpCas9-231 circular permutation: residues 232-1368, (GGS)n linker, then 1-231 (Streptococcus pyogenes) (UniProt Q99ZW2); experiment: cell_activity; conditions: enrichment in RFP repression FACS screen, E. coli
[8] = molecular target: cpCas9-200 circular permutation: residues 201-1368, (GGS)n linker, then 1-200 (Streptococcus pyogenes) (UniProt Q99ZW2); experiment: cell_activity; conditions: enrichment in RFP repression FACS screen, E. coli
[9] = molecular target: cpCas9-1011 circular permutation: residues 1012-1368, (GGS)n linker, then 1-1011 (Streptococcus pyogenes) (UniProt Q99ZW2); experiment: cell_activity; conditions: enrichment in RFP repression FACS screen, E. coli
[10] = molecular target: cpCas9-1042 circular permutation: residues 1043-1368, (GGS)n linker, then 1-1042 (Streptococcus pyogenes) (UniProt Q99ZW2); experiment: cell_activity; conditions: enrichment in RFP repression FACS screen, E. coli
[11] = molecular target: subset of circular permuted dCas9 proteins (CPs) with a TEV linker (ENLYFQ\S) between the N & C termini

| Molecule | binding signal (log2 fold change) [1] | binding signal (log2 fold change) [2] | binding signal (log2 fold change) [3] | binding signal (log2 fold change) [4] | binding signal (log2 fold change) [5] | binding signal (log2 fold change) [6] | binding signal (log2 fold change) [7] | binding signal (log2 fold change) [8] | binding signal (log2 fold change) [9] | binding signal (log2 fold change) [10] | western blot of linker cleavage [11] |
| --- | --- | --- | --- | --- | --- | --- | --- | --- | --- | --- | --- |
| RFP-targeting guide RNA ; RFP reporter target | 17 | 16.7 | 18.1 | 18 | 17.1 | 15.6 | 17.2 | 17.7 | 17.3 | 17.8 | – |
| B1 | – | – | – | – | – | – | – | – | – | – | the CPs were cleaved at the correct location when an active TEV protease was present in the cell |
